Data published in patent US20240239878A1 (SHANGHAI QILU PHARMACEUTICAL RESEARCH AND DEVELOPMENT CENTRE, published 2024).

How the values were obtained:
[1] = target: T1, human DLL3 antigen protein (Kactus Biosystems, Cat. No. DLL-HM103) (human, UniProt Q9NYJ7 27-492); assay: SPR (Biacore 8K), antibody captured on anti-human Fc, DLL3 in solution
T1 sequence: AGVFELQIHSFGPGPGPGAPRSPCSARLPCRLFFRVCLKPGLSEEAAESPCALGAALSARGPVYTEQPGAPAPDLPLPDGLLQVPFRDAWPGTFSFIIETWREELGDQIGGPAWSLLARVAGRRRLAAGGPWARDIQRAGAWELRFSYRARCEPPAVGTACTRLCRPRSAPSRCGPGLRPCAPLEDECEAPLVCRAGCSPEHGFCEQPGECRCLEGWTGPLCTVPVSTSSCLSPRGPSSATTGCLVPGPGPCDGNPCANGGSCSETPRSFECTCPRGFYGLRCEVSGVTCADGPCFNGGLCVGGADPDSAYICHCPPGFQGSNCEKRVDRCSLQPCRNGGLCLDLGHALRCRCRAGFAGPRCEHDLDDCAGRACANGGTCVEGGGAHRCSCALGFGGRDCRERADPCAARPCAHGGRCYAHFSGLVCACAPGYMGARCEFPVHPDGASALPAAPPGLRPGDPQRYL
Method: The affinity and kinetic properties of the humanized anti-DLL3 antibody to human DLL3 were analyzed using a Biacore 8K instrument. CM5 chips were activated with EDC and NHS, followed by immobilization of anti-human Fc murine mAb and blocked with ethanolamine.
Human DLL3 was diluted two-fold serially to serial concentrations (100 nM-0.39 nM) and associated for 90 s and dissociated for 600 s at a flow rate of 50 μL/min.
After completion of each round of the experiment, the captured antibody was removed together with the antigen by washing with a 3M MgCl₂ solution at a flow rate of 30 μL/min for 30 s to complete the regeneration of the chip. The raw data were analyzed using Biacore Insight Evaluation Software (3.0.12.15655) software and fitted with a (1:1) Langmuir model with.

[2] = target: T1, human DLL3 antigen protein (Kactus …); assay: affinity assay with human DLL3 antigen protein (kinetics; method not restated, Biacore as in Example 18 implied)

B1: H2-39E2D11 mouse hybridoma-derived humanized anti-DLL3 antibody (antibody, V domains shown)
VH: QVQLVQSGAEVKKPGASVKVSCKASGYTFISYWITWVRQAPGQGLEWMGDIYPGSGSTTNYNEKFKSRVTMTRDTSTSTVYMELSSLRSEDTAVYYCARETTVGGAYAMDYWGQGTLVTVSS
VL: EIVLTQSPATLSLSPGERATLSCRASQSINNNLHWYQQKPGQAPRLLIKYVSQSISGIPARFSGSGSGTDFTLTISSLEPEDFAVYYCQQTNSWPLTFGGGTKLEIK
- Kd [1]: 576 pM
- koff [1]: 0.00018 s⁻¹
- kon [1]: 313000 M⁻¹ s⁻¹
- Kd [2]: 739 pM
- koff [2]: 0.000134 s⁻¹
- kon [2]: 181000 M⁻¹ s⁻¹
